In publication PMC6940360:

Target: Taxol-stabilized microtubules (MTs) from HeLa S3 cells (human (endogenous in HeLa S3)) (UniProt P68363)
Test: solid-state NMR (J-based 2D 15N-HSQC); unlabeled MAP7-MTBD added to [13C,15N]-labeled MTs at molar ratio 2:1 MAP7-MTBD:MT in BRB80 with 20 uM taxol, 30 °C for 30 min, pelleted at 180,000 x g; MAS 44 kHz, actual temperature 293 K; bound population from a two-state model, P_bound = 1 - I_bound/I_free

B1: MAP7-MTBD (microtubule-binding domain of MAP7D3, residues 59-170) (domain or fragment)
chain: DGSMLKNDIKQRLARERREEKRRQQDANKETQLLEKERKTKLQYEKQMEERQRKLKERKEKEEQRRIAAEEKRHQKDEAQKEKFTAILYRTLERRRLADDYQQKRWSWGGSA
Q: B1 was tested. Which bound population of alpha-tubulin Tyr451 (P bound) did it give?
A: Its bound population of alpha-tubulin Tyr451 (P bound) is 65%.

Q: What about the bound population of beta-tubulin Ala444 (P bound) of the same binder?
A: The bound population of beta-tubulin Ala444 (P bound) was 25%.

Q: What about the bound population of tail residues around the EGE and FGE segments (P bound) of the same binder?
A: The bound population of tail residues around the EGE and FGE segments (P bound) was less than 80%.
